Assay results reported in patent US20070172906A1 (BIOSITE, published 2007).

B1: Z1XM01701 (antibody, V domains shown)
VH: EVMLVESGGGLVKPGGSLKLSCAASGFTFSNYAMSWVRQTPAKRLEWVATISGGGGNTYYPDSVKGRFTISRDNAKNTLYLQMSSLRSEDTALYYCARHPNRFETAVDYWGQGTSVIVSS
VL: QIVLTQSPAILSASPGEKVTMTCRASSSVSSVHWYQQKPGSSPKPWIYATSNLASGVPTRFSGGGSGTSYSLTISRVEAEDAATYSCQQWSSDPPTFGGGTKLEIK
notes: It was subcloned into a pBR322 expression vector, expressed, purified and biotinylated; also called SE61z1zm-01071
B2: Z3XM01011 (antibody, V domains shown)
VH: EVQLQQSGPGLVEPSQSLSITCTVSGFSLRSYGVHWVRQSPRKGLEWLGGIWSGGRIDYNAAYISRLTINKDNSKSQVFFKMNSLQADDTAIYYCVRKAIDLGDYYGMDYWGQGTSVTVSS
VL: DIVMTQFSQILSTSVGDRVSITCKASQDVGTAVAWYQQKPGQSPKLLIYWASTRHTGVPGRFTGSGSGTDFTLTIISVQSEDLADYFCQQYSSYPTFGGGTKLEIK
notes: Mouse monoclonal antibody from the same Fab phage library after one more round of panning, subcloned into a pBR322 expression vector

Molecular target: T1, Human latent protein C (Enzyme Research Labs, Catalog # HPC 1001) (human, UniProt P04070 43-197; P04070 200-461)
T1 construct: Bought protein; It was biotinylated for panning and ELISA
T1 sequence (P04070 43-197, form in doubt, chain 1 of 2): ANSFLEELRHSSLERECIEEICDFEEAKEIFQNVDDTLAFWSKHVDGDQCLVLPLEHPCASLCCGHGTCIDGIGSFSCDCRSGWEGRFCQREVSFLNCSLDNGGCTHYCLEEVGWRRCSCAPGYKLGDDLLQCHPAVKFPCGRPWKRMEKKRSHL
T1 sequence (P04070 200-461, form in doubt, chain 2 of 2): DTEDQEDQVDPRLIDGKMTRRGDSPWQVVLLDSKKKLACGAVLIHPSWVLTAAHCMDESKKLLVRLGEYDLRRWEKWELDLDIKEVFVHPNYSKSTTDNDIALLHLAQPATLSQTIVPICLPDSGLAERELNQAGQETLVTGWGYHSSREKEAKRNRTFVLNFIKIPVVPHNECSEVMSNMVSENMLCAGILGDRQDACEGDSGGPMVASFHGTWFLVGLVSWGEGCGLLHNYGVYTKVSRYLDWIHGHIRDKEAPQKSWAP
Assay: method not stated

| Binder | Ka [M⁻¹] |
| --- | --- |
| B1 | ≥ 1e+10 |
| B2 | ≥ 1e+10 |
